# B1: recombinant MBP-tagged KLF5 (natural protein)
# chain: not shown
# notes: KLF5; For the pull-down with pure proteins the MBP-KLF5 was not previously subject to the amylose purification; also called MBP-KLF5; 6xHis-TEV-MBP-KLF5; source: E. coli BL21-CodonPlus (DE3)-RIPL, purified (Ni-NTA, TEV cleavage, SEC; also amylose resin for the mass spectrometry experiments); not shown: His6, N-terminal, cleaved; MBP, N-terminal, kept
# Target: T1, RUVBL1/2 hetero-hexamer (purified, recombinant) (UniProt Q9Y265 1-456; Q9Y230 1-463)
# T1 construct: RUVBL1; RUVBL2, untagged; Printed as a hetero-hexamer; also called RUVBL1/2 complex; source: E. coli BL21, co-expressed, purified (Ni-NTA, TEV cleavage, SEC on Superose 6); not shown: His6, N-terminal, cleaved
# Test: pull-down; MBP-KLF5 (10 μg) or MBP (5 μg) on amylose resin; 10 μg RUVBL1, 10 μg RUVBL2 or 20 μg RUVBL1/2 hetero-hexamer added for 2 h in 50 mM Na3PO4 pH 7.5, 0.1 mM EDTA, 200 mM NaCl, 1 mM DTT, 5% glycerol; washes with 250 mM NaCl; maltose elution; Western blot; 4 °C
# Conditions: both partners purified
# T1 sequence (Q9Y265 whole entry, chain 1 of 2): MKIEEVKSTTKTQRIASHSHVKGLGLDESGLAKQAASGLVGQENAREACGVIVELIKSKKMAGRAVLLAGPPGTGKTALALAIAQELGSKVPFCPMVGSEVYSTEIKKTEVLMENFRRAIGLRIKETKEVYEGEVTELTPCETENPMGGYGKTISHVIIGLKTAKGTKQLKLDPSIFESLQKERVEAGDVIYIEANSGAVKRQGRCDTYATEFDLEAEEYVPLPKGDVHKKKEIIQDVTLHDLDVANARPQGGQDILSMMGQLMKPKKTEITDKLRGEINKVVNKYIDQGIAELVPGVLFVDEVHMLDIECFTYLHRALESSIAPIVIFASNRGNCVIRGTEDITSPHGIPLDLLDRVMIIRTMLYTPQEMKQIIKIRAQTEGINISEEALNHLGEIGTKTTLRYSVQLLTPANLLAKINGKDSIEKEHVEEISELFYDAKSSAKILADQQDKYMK
# T1 sequence (Q9Y230 whole entry, chain 2 of 2): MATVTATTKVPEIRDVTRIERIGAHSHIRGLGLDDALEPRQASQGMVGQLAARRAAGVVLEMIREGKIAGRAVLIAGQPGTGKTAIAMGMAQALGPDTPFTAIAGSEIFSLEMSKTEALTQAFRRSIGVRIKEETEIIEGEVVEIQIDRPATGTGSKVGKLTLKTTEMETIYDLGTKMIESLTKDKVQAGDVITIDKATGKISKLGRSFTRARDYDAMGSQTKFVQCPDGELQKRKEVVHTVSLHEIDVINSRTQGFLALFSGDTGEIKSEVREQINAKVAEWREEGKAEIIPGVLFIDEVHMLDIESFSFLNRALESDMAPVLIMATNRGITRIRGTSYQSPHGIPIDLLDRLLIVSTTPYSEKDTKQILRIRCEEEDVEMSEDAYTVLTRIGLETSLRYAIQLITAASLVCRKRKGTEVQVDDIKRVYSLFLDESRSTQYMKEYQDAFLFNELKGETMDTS
binder,measurement,value
B1,binding result,binds
